{
  "source": "patent US9688764B2",
  "about": "“Methods of treating breast cancer by administering anti-human prolactin receptor (PRLR) antibodies” (REGENERON PHARMACEUTICALS, INC., priority 2013, dated 2017)",
  "molecules": {"B1": {"name": "H1H6953N-DM1 (conjugate)", "VH": "EVQLLESGGGLVQPGGTLRLSCAASGFTFSAYAMSWVRQAPGKGLEWVSSINVRAGDTYYADSVKGRFTISRDNSKNTLFLLMNSLRAEDTAAYYCAKARYSSNWGFDFWGQGTLVTVSS", "VL": "DIVMTQSPDSLTVSLGARTTINCQSSQTILHSSNNHNYLAWYQQKPGLPPKLLIYWSSTRESGVPDRFSGSGSGTDFTLTISSLQAEDVAIYYCQQYSNTPYTFGQGTKLEIN"}, "B2": {"name": "H1H6953N: human IgG1 Fc form of H1M6953N; anti-PRLR; HCVR/LCVR SEQ ID NOs 274/282 (antibody, V domains shown)", "VH": "B1 VH", "VL": "B1 VL", "modifications": "human IgG1 Fc"}, "B3": {"name": "H1H6765P: anti-PRLR antibody, human IgG1 Fc; HCVR/LCVR SEQ ID NOs 18/26 (antibody, V domains shown)", "VH": "EVQLVESGGGVVRPGGSLRLSCVGSGFSFDDHGMNWVRQGPGKGLEWVSGFNWNGGSTNYAESVKGRFTISRDNARNSLFLQMNSLRAEDTALYYCVRGRSGWFNDAFDVWGPGTMVTVSS", "VL": "EIVLTQSPGTLSLSPGERATLSCRASQTINSNYLAWYRQKPGQTPRLLIYGTSSRATGIPDRFSGSGSGTDFSLTISRLEPEDFAVFYCQQYAGLPTFGPGTKVDIK", "modifications": "human IgG1 Fc"}, "B4": {"name": "H1H6958N2-DM1: anti-PRLR antibody H1H6958N2 conjugated to DM1 through an SMCC linker (conjugate)", "VH": "QVQLVESGGGVVQPGRSLRLSCGASGFTFRNYGMQWVRQGPGKGLEWVTLISFDGNDKYYADSVKGRFTISRDNSKNTLFLQMNSLRTEDTAVYYCARGGDFDYWGQGTLVTVSS", "VL": "DIQMTQSPSSLSASVGDRVTITCRASQDIRKDLGWYQQKPGKAPKRLIYAASSLHSGVPSRFSGSGSGTEFTLTISSLQPEDFATYYCLQHNSYPMYTFGQGTKLEIK"}, "B5": {"name": "H1H6958N2: human IgG1 Fc form of H2M6958N2; anti-PRLR, receptor blocking; HCVR/LCVR SEQ ID NOs 290/298 (antibody, V domains shown)", "VH": "B4 VH", "VL": "B4 VL", "modifications": "human IgG1 Fc"}},
  "key": {"[1]": {"experiment": "Conjugate characterization: protein and linker/payload concentrations, payload loading (UV, MALDI-TOF, SEC-HPLC, RP-HPLC)", "type": "physicochemical", "conditions": "Anti-PRLR-SMCC-DM1 conjugates; Table 9", "procedure,_shortened": "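Anti-PRLR antibodies were conjugated to DM1 via an SMCC linker, then purified by size exclusion and sterile filtered. Protein and linker/payload concentrations came from UV and MALDI-TOF, and monomer content and free linker-payload from SEC-HPLC and RP-HPLC. Payload loading was determined by UV and by native-versus-conjugated mass difference, with yields based on protein.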"}, "T47D cells": {"test_system": "T47D cells", "experiment": "Cell viability (cell kill) assay", "type": "cell-based", "procedure,_shortened": "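T47D cells grown overnight, then exposed 3 days to anti-PRLR ADCs (DM1 via non-cleavable SMCC linker, or other maytansinoid toxins) or free DM1-SMe, 500 nM to 5 pM. Viability by CCK8 OD450, digitonin background subtracted, as % of untreated; IC50 from 10-point four-parameter fit. PRL (15 nM) co-incubation tested separately.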"}, "MCF7/PRLR tumors": {"test_system": "MCF7/PRLR tumors", "experiment": "Tumor growth inhibition in xenograft-bearing mice", "type": "in vivo, NCr nude mice", "conditions": "for effect on MCF7/PRLR tumor growth: multi-dose trial 1, 5 and 15 mg/kg", "from_the_text": "(§1) Briefly, 20×10^6 MCF7/PRLR cells (ATCC HTB-22 transfected with full length hPRLR as previously described) were implanted subcutaneously into the left mammary fat pad of female NCr nude mice. In other studies, 10×10^6 PC3/PRLR (ATCC CRL-1435 transfected with full length hPRLR as previously described) were implanted subcutaneously into the left flank of male SCID mice. Additionally, 10×10^6 parental T47D (ATCC HTB-133) or […] T47D#11 cells (ATCC HTB-133 serially passaged in vivo as described below) were subcutaneously implanted into the left flank of female CB17 SCID mice. All mice were obtained from Taconic (Hudson, N.Y.). Each bolus of cells was supplemented with a 90-day estrogen release pellet (1.7 mg/pellet; Innovative Research America, Sarasota Fla.). Once tumors had reached an average volume of 250 mm^3, mice were randomized into groups of seven and dosed with anti-PRLR antibody-drug conjugates of the invention or control reagents. Control reagents included PBS vehicle, free methyl-disulfide DM1 (DM1-SMe) and isotype Control 1-DM1.\n(§2) In multi-dose studies, mice were dosed once a week for a total of three weeks with tumor volumes and body weights being monitored twice weekly throughout the study. Test ADCs were dosed at 5 and/or 15 mg/kg in the multi-dose studies. In single-dose studies, mice received a single dose of test ADC, and tumor volumes and body weights were monitored twice weekly throughout the study. Test ADCs were dosed at 1, 2.5, 5, and 15 mg/kg in the single-dose studies. Average tumor size as well as tumor growth inhibition relative to the vehicle treated group were calculated for each group. Tumors were measured with calipers twice a week until the average size of the vehicle group reached 1000 mm^3. Tumor size was calculated using the formula (length×width^2)/2. Tumor growth inhibition was calculated according to the following formula: (1−((Tfinal−Tinitial)/(Cfinal−Cinitial)))*100, where T (treated group) and C (control group) represent the mean tumor mass on the day the vehicle group reached 1000 mm^3. […] Results are summarized in Tables 21-25 (multi-dose) and Table 26 (single dose). (NT=not tested in the particular experiment shown)."}, "PC3/PRLR tumors": {"test_system": "PC3/PRLR tumors", "experiment": "Tumor growth inhibition in xenograft-bearing mice", "type": "in vivo, SCID mice", "conditions": "for effect on PC3/PRLR tumor growth: multi-dose, especially at 15 mg/kg; for Average Tumor Growth Inhibition (%): SCID mice", "from_the_text": "as §1, §2"}, "[2]": {"conditions": "T47D, Table 12, 3 days, read-out: IC50"}},
  "note": "Read-outs that look alike come from different tables or passages of the source.",
  "data": [
    {"molecule": "B1", "values": [
      {"measurement": "Payload:Antibody Molar Ratio (MS)", "setting": "[1]", "result": 2.7},
      {"measurement": "Payload:Antibody Molar Ratio (UV)", "setting": "[1]", "result": 3.2},
      {"measurement": "IC50", "setting": "T47D cells; T47D cells (PRLR 12× above background), 3 days, read-out: IC50, cell viability", "result": 1.3, "unit": "nM"},
      {"measurement": "% Kill", "setting": "T47D cells; T47D, Table 12, 3 days", "result": 79, "unit": "%"},
      {"measurement": "IC50", "setting": "T47D cells; [2]", "result": 1.64, "unit": "nM"},
      {"measurement": "effect on MCF7/PRLR tumor growth", "setting": "MCF7/PRLR tumors", "result": "potently inhibited MCF7/PRLR tumor growth"},
      {"measurement": "effect on PC3/PRLR tumor growth", "setting": "PC3/PRLR tumors", "result": "demonstrated inhibition of tumor growth"}
    ]},
    {"molecule": "B2", "values": [
      {"measurement": "Average Tumor Growth Inhibition (%)", "setting": "MCF7/PRLR tumors; MCF7/PRLR tumors TRIAL #1, multi-dose 15 mg/kg, NCr Nude mice, Day 52", "result": 79, "unit": "%"}
    ]},
    {"molecule": "B3", "values": [
      {"measurement": "Average Tumor Growth Inhibition (%)", "setting": "PC3/PRLR tumors; PC3/PRLR tumors TRIAL #2, multi-dose 15 mg/kg, Day 55", "result": 1, "unit": "%"}
    ]},
    {"molecule": "B4", "values": [
      {"measurement": "Payload:Antibody Molar Ratio (MS)", "setting": "[1]", "result": 3.4},
      {"measurement": "Payload:Antibody Molar Ratio (UV)", "setting": "[1]", "result": 4.0},
      {"measurement": "% Kill", "setting": "T47D cells; T47D, Table 12, 3 days", "result": 71, "unit": "%"},
      {"measurement": "IC50", "setting": "T47D cells; [2]", "result": 1.34, "unit": "nM"},
      {"measurement": "% Kill", "setting": "T47D cells; T47D, Table 13, + 15 nM PRL", "result": 100, "unit": "%"},
      {"measurement": "IC50", "setting": "T47D cells; T47D, Table 13, + 15 nM PRL, read-out: IC50", "result": 3, "unit": "nM"},
      {"measurement": "% Kill", "setting": "T47D cells; T47D, Table 13, without PRL", "result": 100, "unit": "%"},
      {"measurement": "IC50", "setting": "T47D cells; T47D, Table 13, without PRL, read-out: IC50", "result": 1, "unit": "nM"},
      {"measurement": "% Kill", "setting": "T47D cells; T47D, Table 19", "result": 100, "unit": "%"},
      {"measurement": "IC50", "setting": "T47D cells; T47D, Table 19, read-out: IC50", "result": 2, "unit": "nM"},
      {"measurement": "effect on MCF7/PRLR tumor growth", "setting": "MCF7/PRLR tumors", "result": "potently inhibited MCF7/PRLR tumor growth"},
      {"measurement": "effect on tumor volume relative to vehicle control tumors", "setting": "MCF7/PRLR tumors; single dose, 1 mg/kg", "result": "significant decrease in tumor volume"},
      {"measurement": "tumor growth inhibition", "setting": "MCF7/PRLR tumors; single dose, all doses above 1 mg/kg tested (2.5, 5, 15 mg/kg)", "result": "> 100", "unit": "%"},
      {"measurement": "Average Tumor Growth Inhibition (%)", "setting": "PC3/PRLR tumors; PC3/PRLR tumors TRIAL #1, multi-dose 5 mg/kg, Day 63", "result": 5, "unit": "%"},
      {"measurement": "effect on PC3/PRLR tumor growth", "setting": "PC3/PRLR tumors", "result": "demonstrated inhibition of tumor growth"}
    ]},
    {"molecule": "B5", "values": [
      {"measurement": "Average Tumor Growth Inhibition (%)", "setting": "MCF7/PRLR tumors; MCF7/PRLR tumors, single dose 15 mg/kg, Day 55", "result": 1, "unit": "%"}
    ]}
  ]
}
